The target in the test is T1, Tfb2 (p52), subunit of TFIIH (S. cerevisiae, UniProt Q02939 1-513).
T1 construct: Tfb2 (p52 in human), subunit of S. cerevisiae TFIIH; Stood in the assay as a subunit of TFIIH
T1 sequence: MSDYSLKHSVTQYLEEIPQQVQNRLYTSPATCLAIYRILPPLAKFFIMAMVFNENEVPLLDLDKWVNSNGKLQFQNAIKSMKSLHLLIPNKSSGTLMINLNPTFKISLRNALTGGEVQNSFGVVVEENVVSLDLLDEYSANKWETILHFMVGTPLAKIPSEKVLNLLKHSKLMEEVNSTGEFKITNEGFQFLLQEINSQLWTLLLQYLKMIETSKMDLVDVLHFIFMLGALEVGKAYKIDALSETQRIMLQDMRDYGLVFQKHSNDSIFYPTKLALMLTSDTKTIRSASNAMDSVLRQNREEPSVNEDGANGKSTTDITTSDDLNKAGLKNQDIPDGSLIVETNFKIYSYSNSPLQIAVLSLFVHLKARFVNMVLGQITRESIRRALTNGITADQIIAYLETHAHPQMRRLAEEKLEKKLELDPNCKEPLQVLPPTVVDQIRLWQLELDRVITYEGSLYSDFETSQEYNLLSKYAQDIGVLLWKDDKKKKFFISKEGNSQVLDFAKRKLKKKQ
The test can be described thus: cryo-EM structure; PIC-nucleosome complex A, without NTPs; PIC assembled in vitro on nucleosomal 209 bp His4 promoter/Widom-601 scaffold, GraFix (15-40% sucrose, 0-0.1% glutaraldehyde); overall 3.3 Å. As to conditions: both partners purified.

B1: Tfb5, subunit of TFIIH (natural protein, S. cerevisiae)
chain: MARARKGALVQCDPSIKALILQIDAKMSDIVLEELDDTHLLVNPSKVEFVKHELNRLLSKNIYNPMDEEENQ
notes: Tfb5, subunit of S. cerevisiae TFIIH; Stood in the assay as a subunit of TFIIH
For the molecule B1, the binding result is given as “binds”.

Values taken from article PMC9935396, “Structures of transcription preinitiation complex engaged with the +1 nucleosome” (Nature Structural & Molecular Biology, 2022).
